Assay results published in the DeepSol protein solubility set.

experiment: soluble on expression in E. coli; label from the status in PepcDB or PDB records

Row | Sequence | soluble on expression in E. coli
1 | AYESIQVTSAQKHVLHVQLNRPEKRNAMNRAFWRELVECFQKISKDSDCRAVVVSGAGKMFTSGIDLMDMASDILQPPGDDVARIAWYLRDLISRYQKTFTVIEKCPKPVIAAIHGGCIGGGVDLISACDIRYCTQDAFFQVKEVDVGLAADVGTLQRLPKVIGNRSLVNELTFTARKMMADEALDSGLVSRVFPDKDVMLNAAFALAADISSKSPVAVQGSKINLIYSRDHSVDESLDYMATWNMSMLQTQDIIKSVQAAMEKKDSKSITFSKL | soluble
2 | MGSDKIHHHHHHMAEKTIVEKLQLTKYKEAVILNQPNGADYFQNLANYEEKLADKQYDLIFDFVETLEELITFVQKVIAENKLAANGYLFFAYPKKGNKKFATYVHRDELMPALKTDEEGYVDGSTLKFTRMVALDETYTVVGLKEAAKLKAKGVKKNNPSADEYADHVPLVAEFLADKGDLQAFYNNLATGYQRVWARYIYSAKQPATQEKRRLEMVDILSQGYKTKDLYRQGKK | not soluble
3 | MSKVLVLKSSILAGYSQSGQLTDYFIEQWREKHVADEITVRDLAANPVPVLDGELVGAMRPGDAPLTPRQQDALALSDELIAELKAHDVIVIAAPMYNFNIPTQLKNYFDLIARAGITFRYTEKGPEGLVTGKRAVVLSSRGGIHKDTPTDLIAPYLKVFLGFIGITDVNFVFAEGIAYGPEVAAKAQADAKAAIDSVVAA | soluble
4 | MRNTVNILGIPIDNVSMDEALNVVKGFLSEDRVHTVYTPNSEIMMAAQRDPELKKILCEADLLVPDGAGVVLASKINGCPLKERVAGFDLTNMLFSDEAAKAVNFFFLGGKPGVAEEAYKNLLDRKININVVGIRNGYFTKDEEEEIIRQINDSNTDVLLVALGAPKQEKWIHANKEKLKVKVCIGVGGTFDVLAGRAKRAPVFFQKHGLEWLYRLYKEPWRFVRMLDLPRFILRVIANKIRPEKPERA | soluble
5 | MHDNTIKSISKDYFDYLQTESKFIPLENETIEFYSPIVDYFGDSISVNISFSGDRYKLTDHGETLWNMEQLGIDLTSNKKQKKYQLLNNIVQNYSLVIENKHINFYTNRINLSQAIHDYVLAISEISYLGILKKENIKSLFKDEVMQYFLSNRKIYPNIFPEFKVEGKSKLIHSFEAVFPGEATEYVKTIKRIDKNNAKNVLFDWNDVEIHRNKNFDSNARLNIITEQQDDISEAVSTMLSQYNVEVFSFENKKQLEEKFSNV | not soluble
6 | MRCPNCNSLDTQVKDSRPTEDSSVIRRRRVCIACNFRFTTFERVQLRELIVIKRNGRRVPFDRDKLMRSVQISLRKRPVDPERVEQMVSAIVRELESGGEAEISSETIGESVMDHLRKLDDVAYVRFASVYRNFREAKDFEAVLGELSHEDEARAALVRK | not soluble
7 | RETFNYMLPGAGVRGAAMARTAGRWGERVVSHNATFKLLTDLRIFFFKKLAPLIPGRVSTMRDADLLNRLVADVDAMDHVYLR | not soluble
8 | GPGSMADAYRERALPTLSVLERLRCLRREHVPYASHYCEENAYKLVEALYRDFSLPDHAVFAVFISNDCKSTPVWKQRLGNGRCPLMWDYHVITLVNVGAGDEGGMWAFDQDTTLPFPCEGLRYIEESFHPEMQLDDKYRQRFRVVPGRDYLEYFSSDRSHMKDFDAAQPPWPLIRGCRAPSDMRLGLYVDVHQSSSGEDVKKEQGCGKILSIAELISFVSP | soluble
9 | MNNVEKAIEALKKGEIILVYDSDEREGETDMVVASQFITPEHIRIMRKDAGGLICTALHPDICNKLGIPFMVDILEFASQKFKVLRELYPNDIPYDEKSSFSITINHRKTFTGITDNDRAFTIKKLAELVKEGRFNDFGKEFRSPGSVTLLRAAEGLVKNRQGHTEMTVALAELANLVPITTICEMMGDDGNAMSKNETKRYAEKHNLIYLSGEEIINYYLDKYLKD | soluble
10 | SSTHVAGLGLDKMKLGNPQSFLDQEEADDQQLLEPEAWKTYTERRNALREFLTSDLSPHLLKRHHARMQLLRKCSYYIEVLPKHLALGDQNPLVLPSALFQLIDPWKFQRMKKVGTAQTKIQLLLLGDLLEQLDHGRAELDALLRSPDPRPFLADWALVERRLADVSAVMDSFLTMMVPGRLHVKHRLVSDVSATKIPHIWLMLSTKMPVVFDRKASAAHQDWARLRWFVTIQPATSEQYELRFRLLDPRTQQECAQCGVIPVAACTFDVRNLLPNRSYKFTIKRAETSTLVYEPWRDSLTLHTKPEPLEGPALSHSV | soluble
11 | MSLYYLFAPQFHPSKTVYVYVDRDDTADSIYNKIRQTGHVNKFTGFQWMAKYRKFDQNIHTGRYAIRPNENVYHVFSRFFRGYQEPMNLTIGSIRTLDRLARSIGKQLMIDSAEIARQLFDSAFQTEMGYTPVTMPCLFIPETYQVYWDMSVDDFFKRMQTEHKRFWNDERLAQATAIGMTPEEVCTLASIVEEETNNNEEKPMVAGLYINRLHTGMPLQADPTIKFALQDFGLRRITNEHLKVNSPYNTYINSGLPPGPIRIPSKKGLDSVLNYTKHNYIYMCAKEDFSGTHNFASNYADHMANARKYWKALNERKEGHHHHHH | not soluble
12 | MGSDKIHHHHHHMNKANTVDTSTEAVERVAKEISGLASREAVSMIQGWEDAFELYLKAADQLSALAAERDTLANQVEDCARECAKLAEEIQRLQAQLAETRASLYALEKGVWRDGYPDKISGSEWFIALLEDNRRVVLRSLPEEHSYDYTTADDTYLAAWKIKRWMQFPDANFIAPDTIVHTTVERIEQIKEEARNAALEEAAEVVARIKKPTIPPMFMGQTRAEAYDMGQHNACESKAELIRTLKSEPAPHPDCPECSGSGMRDSGGVQPWGDHIDAPCDCENAPAPRQSVQKAADNLAKGLRSAGYFIPSSIIFDVMVQKKSAS | not soluble
13 | MASKTIKIMPVGDSCTEGMGGGEMGSYRTELYRLLTQAGLSIDFVGSQRSGPSSLPDKDHEGHSGWTIPQIASNINNWLNTHNPDVVFLWIGGNDLLLNGNLNATGLSNLIDQIFTVKPNVTLFVADYYPWPEAIKQYNAVIPGIVQQKANAGKKVYFVKLSEIQFDRNTDISWDGLHLSEIGYKKIANIWYKYTIDILRALAGETQLEHHHHHH | soluble
14 | MLIAFEGIDGSGKTTQAKKLYEYLKQKGYFVSLYREPGGTKVGEVLREILLTEELDERTELLLFEASRSKLIEEKIIPDLKRDKVVILDRFVLSTIAYQGYGKGLDVEFIKNLNEFATRGVKPDITLLLDIPVDIALRRLKEKNRFENKEFLEKVRKGFLELAKEEENVVVIDASGEEEEVFKEILRALSGVLRV | soluble
15 | MLAPKAFLDALSGHASRLFNGETPVPRSEFETQFKALLQSGFSKLDLVSREEFDSQMAVLARTRARLEALEAKMAELEGKVGGAEKAGSE | not soluble
16 | VPGVWSPPCPTTPRVGVVAALVAATLTGCGSGDSTVAKTPEATPSLSTAHPAPPSSEPSPPSATAAPPSNHSAAPVDPCAVNLASPTIAKVVSELPRDPRSEQPWNPEPLAGNYNECAQLSAVVIKANTNAGNPTTRAVMFHLGKYIPQGVPDTYGFTGIDTSQCTGDTVALTYASGIGLNNVVKFRWNGGGVELIGNTTGG | soluble
17 | MSAIENFDAHTPMMQQYLRLKAQHPEILLFYRMGDFYALFYDDAKRASQLLDISLTKRGASAGEPIPMAGIPYHAVENYLAKLVNQGESVAICEQIGDPATSKGPVERKVVRIVTPGTISDEALLQERQDNLLAAIWQDSKGFGYATLDISSGRFRLSEPADRETMAAELQRTNPAELLYAEDFAEMSLIEGRRGLRRRPLWEFEIDTARQQLNLQFGTRDLVGFGVENAPRGLCAAGCLLQYAKDTQRTTLPHIRSITMEREQDSIIMDAATRRNLEITQNLAGGAENTLASVLDCTVTPMGSRMLKRWLHMPVRDTRVLLERQQTIGALQDFTAGLQPVLRQVGDLERILARLALRTARPRDLARMRHAFQQLPELRAQLETVDSAPVQALREKMGEFAELRDLLERAIIDTPPVLVRDGGVIASGYNEELDEWRALADGATDYLERLEVRERERTGLDTLKVGFNAVHGYYIQISRGQSHLAPINYMRRQTLKNAERYIIPELKEYEDKVLTSKGKALALEKQLYEELFDLLLPHLEALQQSASALAELDVLVNLAERAYTLNYTCPTFIDKPGIRITEGRHPVVEQVLNEPFIANPLNLSPQRRMLIITGPNMGGKSTYMRQTALIALMAYIGSYVPAQKVEIGPIDRIFTRVGAADDLASGRSTFMVEMTETANILHNATEYSLVLMDEIGRGTSTYDGLSLAWACAENLANKIKALTLFATHYFELTQLPEKMEGVANVHLDALEHGDTIAFMHSVQDGAASKSYGLAVAALAGVPKEVIKRARQKLRELESIS | soluble
18 | MPAVSKGDGMRGLAVFISDIRNCKSKEAEIKRINKELANIRSKFKGDKALDGYSKKKYVCKLLFIFLLGHDIDFGHMEAVNLLSSNRYTEKQIGYLFISVLVNSNSELIRLINNAIKNDLASRNPTFMGLALHCIANVGSREMAEAFAGEIPKILVAGDTMDSVKQSAALCLLRLYRTSPDLVPMGDWTSRVVHLLNDQHLGVVTAATSLITTLAQKNPEEFKTSVSLAVSRLSRIVTSASTDLQDYTYYFVPAPWLSVKLLRLLQCYPPPEDPAVRGRLTECLETILNKAQEPPKSKKVQHSNAKNAVLFEAISLIIHHDSEPNLLVRACNQLGQFLQHRETNLRYLALESMCTLASSEFSHEAVKTHIETVINALKTERDVSVRQRAVDLLYAMCDRSNAQQIVAEMLSYLETADYSIREEIVLKVAILAEKYAVDYTWYVDTILNLIRIAGDYVSEEVWYRVIQIVINRDDVQGYAAKTVFEALQAPACHENLVKVGGYILGEFGNLIAGDPRSSPLIQFNLLHSKFHLCSVPTRALLLSTYIKFVNLFPEVKATIQDVLRSDSQLKNADVELQQRAVEYLRLSTVASTDILATVLEEMPPFPERESSILAKLKKKKGGS | soluble
19 | MAGKITVVGLGAGDMDQLTIGIHKLLTKADTLYVRTKDHPLIEELEKETKNIRFFDDIYEKHDQFEAVYEEIADILFEAARREDVVYAVPGHPFVAEKTVQLLTERQEKENVQVKVAGGQSFLDATFNVLQIDPIEGFQFVDAGTLSADELELRHHLIICQVYDQMTASEVKLTLMEKLPDDYEVVIVTAAGSRGEEIRTVPLFELDRNVALNNLTSVYIPPIKEEKLLYHEFSTFRSIIRELRGPNGCPWDKKQTHQSLKQYMIEECYELLEAIDEEDTDHMIEELGDVLLQVLLHAQIGEDEGYFTIDDVIKGISEKMVRRHPHVFKDVKVQDENDVLANWEDIKKAEKNTSESSLLDSVPKTLPALSKAAKLQKKAAKVGFDWEDVSDIWEKVSEEMKEFSSEVSEAPHEHNLKAEFGDILFALVNVARFYKIEPEEALTMTNDKFRRRFSYIEETAKEEGVELADMSLEDMDKLWNEAKETERRS | soluble
20 | MFQPEKIDPEEATAAIAEVAYIVTVSDYIGNVIRSLYPQASPKLRTIYSVVDSERFLPGNHPKMQKIRNDIRRAHGLENKTVILFAGRLSRNKGVDKLILALPELAKKFKNLALVIVGSNWFSENDITDYVAYVRALAKRMPVPVVTTGFVPPNEIQNWFAAADLFVCTSQWQEPLARVHYEAMAAGLPIVTTARGGNPEVIFANENGLIVENPEDPSDFANKIAQILSDQSLMRRMGEKGRQLAISIYHWERVASELLEVWEQAEKTEQAVVSEEQAAGMTIEPLKEDATEQLNGPTPKADAKEKVHSKKNAAASSNKTKKGKAKKERAISMEDHQQTAKQKEAAAERTELAKSAPAPKQPQTGRHIKPFTIASGNQQTLDASPKTHLNRKLAQAKHDTKHFTIASSH | not soluble
21 | MFIPKSHTKLIYEYLFNEGVTVAKKDFNAKTHPNIEGVSNLEVIKTLKSLASRELVKEQFAWRHYYWYLTDAGILYLREYLALPAEIVPATIKTKPREIRVPHEDRAPRAAQGEKGDREAYRTEKVTEAGPGGAPVYRAGFGRGAPPPQ | not soluble
